According to patent US6800738:

Experiments:
[1] = biological target: T1, p185^HER2 ECD (secreted form of the extracellular domain of p185^HER2) (human, UniProt P04626 23-652); test: ratio of Kd values, solution equilibrium/ELISA
T1 construct: extracellular domain; also called HER2 extracellular domain

[2] = biological target: p185^HER2 on cells (SK-BR-3 human breast tumor cells; WI-38 cells) (human, UniProt P04626 23-1255); test: cell-based or functional assay
[3] = biological target: T1, p185^HER2 ECD (secreted form of the …); test: solution equilibrium with p185HER2 ECD, free antibody by ELISA on immobilized ECD (Friguet method)

B1: huMAb4D5-2 (antibody, name in Kabat numbering, V domains shown)
VH: EVQLVESGGGLVQPGGSLRLSCAASGFNIKDTYIHWVRQAPGKGLEWVARIYPTNGYTRYADSVKGRFTISADDSKNTLYLQMNSLRAEDTAVYYCARWGGDGFYAMDVWGQGTLVTVSS
VL: not shown
fold increase in affinity over huMAb4D5-1 [1]: 5 fold
Relative cell proliferation of SK-BR-3 cells, 96 hr, 8 ug/ml antibody [2]: 101 % of untreated control
Kd [3]: 4.7 nM
